Experimental data as given in the supplement of paper PMC10899765.
Values joined by “and” are separate entries in the source; they are usually repeats but may differ in a detail not shown here. Equal values may be shown once.

What was measured:
Details in all cases: 20 nM; 72 h
MCF10A [1] = assay: one-nucleolus phenotype percent effect (relative to siNT 0% and siNOL11 100%); higher = more cells with one nucleolus (ribosome biogenesis inhibition)
Procedure: (§1)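 After 72 h, cells were fixed and stained with Hoechst and anti-fibrillarin, and nucleoli per nucleus were counted with CellProfiler. Values are plate-adjusted percent effect for the one-nucleolus and 5+ nucleoli phenotypes, normalised to siNT (0%) and to the positive controls siNOL11 or siKIF11 (100%), as the mean of biological triplicates. Percent viability is the nuclei count relative to siNT.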

MCF10A [2] = assay: percent viability (nuclei count relative to siNT); higher = more viable cells
Procedure: as §1

MCF10A [3] = assay: 5+ nucleoli phenotype percent effect (relative to siNT 0% and siKIF11 100%); higher = more cells with five or more nucleoli
Procedure: as §1

Sequence | one-nucleolus phenotype percent effect (MCF10A [1]) | percent viability (MCF10A [2]) | 5+ nucleoli phenotype percent effect (MCF10A [3])
GAUGCGCCGCCCACUGCCCCGCGC [hsa-miR-4787-3p] | -16.2% | 76.2% | 33.1%
CUAGACUGAAGCUCCUUGAGG [hsa-miR-151a-3p] | -1.52% | 66.5% | -6.07%
ACCUUCUUGUAUAAGCACUGUGCUAAA [hsa-miR-1248] | -15.4% | 96.5% | 33.1%
GCGACCCAUACUUGGUUUCAG [hsa-miR-551b-3p] | -14.5% | 111% | 23.7%
GCUCAGGGAUGAUAACUGUGCUGAGA [hsa-miR-4518] | -10.2% | 55.6% | 31.9%
CCUGUUGAAGUGUAAUCCCCA [hsa-miR-1267] | -18.3% | 114% | 39.6%
AAUUGCACGGUAUCCAUCUGUA [hsa-miR-363-3p] | 5.76% | 63.9% | -15.8%
CCAGUUUUCCCAGGAUU [hsa-miR-4328] | -38.7% | 108% | 62.6%
UAAAACCCACAAUUAUGUUUGU [hsa-miR-548as-3p] | 25.3% | 149% | -6.8%
CUCUAGCCACAGAUGCAGUGAU [hsa-miR-1287-3p] | 31.4% | 17% | -37.2%
AAUCCCAAUGCUAGACCCGGUG [hsa-miR-4733-5p] | 2.5% | 19.5% | 2.55%
CAACCUCGACGAUCUCCUCAGC [hsa-miR-3150a-5p] | -25.7% | 171% | 22.1%
CUCUAGAGGGAAGCGCUUUCUG [hsa-miR-518e-5p] | -0.877% | 26.7% | 3.26%
CUCGGCCGCGGCGCGUAGCCCCCGCC [hsa-miR-4665-3p] | -15.1% | 75.2% | 22%
UGGAUUUCUUUGUGAAUCACCA [hsa-miR-876-5p] | -21.7% | 143% | 24.8%
GUUUAACCUUUUGCCUGUUGG [hsa-miR-552-5p] | -29.8% | 98.1% | 32%
ACCGUGGCUUUCGAUUGUUACU [hsa-miR-132-5p] | -1.09% | 68.8% | -7.44%
GUGAGCCAGUGGAAUGGAGAGG [hsa-miR-6807-5p] | -20.6% | 74.2% | 16.4%
GAAGGCAGCAGUGCUCCCCUGU [hsa-miR-3714] | 19.5% | 9.1% | -29.2%
GCUGAACUGGGCUGAGCUGGGC [hsa-miR-4539] | -1.34% | 87% | -5.15%

Sequence | one-nucleolus phenotype percent effect (MCF10A [1]) | percent viability (MCF10A [2]) | 5+ nucleoli phenotype percent effect (MCF10A [3])
AAAAGUAAUCGCGGUUUUUGUC [hsa-miR-548h-5p] | -19.1% | 101% | 35.8%
UAUGGAGUGGACUUUCAGCUGGC [hsa-miR-6514-5p] | -0.808% | 75% | 38.3%
CCAGGCUCUGCAGUGGGA [hsa-miR-3155b] | -8.6% | 65.5% | 29.5%
AAUGCACCCGGGCAAGGAUUCU [hsa-miR-501-3p] | 10.8% | 48.2% | -14.1%
UAGUGGUCAGAGGGCUUAUGA [hsa-miR-6718-5p] | 39.8% | 18.9% | -44.7%
AGUCAUUGGAGGGUUUGAGCAG [hsa-miR-616-3p] | 10.7% | 85.2% | -20%
AAAAACCACAAUUACUUUUGCACCA [hsa-miR-548aa] | 51.2% | 16.1% | -30.9%
AUCGUGCAUCCUUUUAGAGUGU [hsa-miR-517c-3p] | 11.8% | 41.6% | -11.3%
CCCUGCUGCCUUCACCUGCCAG [hsa-miR-6893-3p] | -5.77% | 50.3% | -2.09%
CAUAAAGUAGAAAGCACUACU [hsa-miR-142-5p] | -15.5% | 82.4% | 15%
UUGGGCUGGGCUGGGUUGGG [hsa-miR-1587] | 29.2% | 19.9% | -22.5%
UGUGACUGGUUGACCAGAGGGG [hsa-miR-134] | 31.9% | 28% | -26.5%
ACCUGAAUUACCAAAAGCUUU [hsa-miR-3140-5p] | -18.7% | 118% | 26.3%
CAGCAGCAAUUCAUGUUUUGAA [hsa-miR-424-5p] | 24% | 77.3% | -8.58%
UUGCCAUACAUAGACUUUAUU [hsa-miR-5590-5p] | 33.6% | 44.8% | -33.2%
GUGGGUACGGCCCAGUGGGGGG [hsa-miR-1225-5p] | -23.1% | 94.3% | 64.9%
UGAGUAUUACAUGGCCAAUCUC [hsa-miR-496] | 11.1% | 42% | -15.6%
UCAGCUCCUCUCUACCCACAG [hsa-miR-6736-3p] | 8.25% | 37.4% | -12.2%
UCUGGCUGUUGUGGUGUGCAA [hsa-miR-3064-5p] | 46.2% | 17.8% | -22.7%
ACAACAGUGACUUGCUCUCCAA [hsa-miR-4709-5p] | 3.79% | 73.8% | -18.3%

Sequence | one-nucleolus phenotype percent effect (MCF10A [1]) | percent viability (MCF10A [2]) | 5+ nucleoli phenotype percent effect (MCF10A [3])
UGACCCCCAUGUCGCCUCUGUAG [hsa-miR-6859-3p] | 2.24% | 45% | -21.2%
ACUGAAUCCUCUUUUCCUCAG [hsa-miR-5187-3p] | -12.2% | 67.9% | 0.116%
AAUGUAAACAGGCUUUUUGCU [hsa-miR-4495] | 2.68% | 68.8% | 29.4%
UGAGGUAGUAAGUUGUAUUGUU [hsa-miR-98-5p] | -13% | 30% | 44.8%
CAGGGAAAUGGGAAGAACUAGA [hsa-miR-5584-5p] | -19.1% | 53.3% | 34.8%
UCUCGCAUCAGGAGGCAAGG [hsa-miR-6872-5p] | -13% | 56% | 24.9%
UCUAGAGGAAGCACUUUCUGUUU [hsa-miR-520g-5p] | -24.2% | 67.5% | 34.9%
CCCAGAUAAUGGCACUCUCAA [hsa-miR-488-5p] | -5.8% | 50.9% | 32.8%
GAGUGGGGCUUCGACCCUAACC [hsa-miR-1296-3p] | 8.1% | 62.8% | -0.672%
UACUCUGGAGAGUGACAAUCAUG [hsa-miR-514a-5p] | -13.3% and -15.4% | 56.4% and 66.9% | 29.4% and 19%
AAGGGAGGAGGAGCGGAGGGGCCCU [hsa-miR-4739] | 21.1% | 19.6% | 4.78%
UAGCAGCGGGAACAGUUCUGCAG [hsa-miR-503-5p] | 14.4% | 29.1% | -16.1%
UUAGCCAAUUGUCCAUCUUUAG [hsa-miR-4662a-5p] | 9.07% | 33.5% | 1.03%
UGCACCAUGGUUGUCUGAGCAUG [hsa-miR-767-5p] | -10.3% | 65.4% | 8.28%
CUAUACAACCUACUGCCUUCCC [hsa-let-7b-3p] | 10.1% | 32.4% | -18.8%
CUGGGCCCGCGGCGGGCGUGGGG [hsa-miR-6724-5p] | -9.05% | 74.9% | 19.6%
UCCAGUACCACGUGUCAGGGCCA [hsa-miR-770-5p] | 29.4% | 55.6% | -28.6%
UGAGAUGAAGCACUGUAGCUC [hsa-miR-143-3p] | -0.991% | 47.9% | -1.77%
CAGCCAGCCCCUGCUCACCCCU [hsa-miR-6858-3p] | 16.5% | 30.6% | 3.04%
